Like-named read-outs stand apart in the source and are kept apart here. *1 amine or outer side, *2 acyl side, *3 side chain or, on linkers, in order; H or OH if unused. Where no end group is shown, it is not given here. Side-chain parts run from the residue outwards. [ ]: non-standard residue; d: D form. The star is where a group is joined. γGlu = O=C(O)[C@H](CCC(=O)[*:2])N[*:1]; Palmitoyl = CCCCCCCCCCCCCCCC(=O)*; Aib = CC(C)(N)C(=O)O
T1: GIP receptor (UniProt P48546 22-466, limits assumed)
T1 sequence (looked up): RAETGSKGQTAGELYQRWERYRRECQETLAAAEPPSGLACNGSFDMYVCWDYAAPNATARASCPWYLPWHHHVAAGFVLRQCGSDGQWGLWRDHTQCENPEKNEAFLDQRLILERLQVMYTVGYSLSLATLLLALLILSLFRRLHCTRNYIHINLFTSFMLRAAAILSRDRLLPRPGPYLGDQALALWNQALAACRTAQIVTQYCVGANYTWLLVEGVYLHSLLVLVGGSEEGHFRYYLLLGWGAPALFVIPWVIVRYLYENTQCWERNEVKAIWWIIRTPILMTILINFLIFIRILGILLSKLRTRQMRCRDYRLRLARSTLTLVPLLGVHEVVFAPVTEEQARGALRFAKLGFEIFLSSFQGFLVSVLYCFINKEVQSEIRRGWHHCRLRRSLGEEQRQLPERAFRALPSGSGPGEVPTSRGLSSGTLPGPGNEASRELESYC

B1: dual acylated peptide of SEQ ID NO: 160 (peptide)
peptide: HXQGTFTSDKSKYLDERAAQDFVQWLLDGGPSSGAPPPS
modifications: aib at 2; Lys10 carrying two acylations in a branched formation, K*K(rEC16)2; amide
B2: dual acylated peptide of SEQ ID NO: 162 (peptide)
peptide: HXQGTFTSDKSKYLDERAAQDFVQWLLDGGPSSGAPPPS
modifications: aib at 2; Lys10 carrying two acylations in a linear formation, K*(C12-rEC16); amide
B3: peptide of SEQ ID NO: 205 (peptide)
peptide: H[Aib]QGTFTSDK([γGlu-Palmitoyl])SKYLDERAAQDFVQWLLDGGPSSGAPPPSG-NH2
modifications: N-terminus assumed
SMILES: CCCCCCCCCCCCCCCC(=O)N[C@@H](CCC(=O)NCCCC[C@H](NC(=O)[C@H](CC(=O)O)NC(=O)[C@H](CO)NC(=O)[C@@H](NC(=O)[C@H](Cc1ccccc1)NC(=O)[C@@H](NC(=O)CNC(=O)[C@H](CCC(N)=O)NC(=O)C(C)(C)NC(=O)[C@@H](N)Cc1c[nH]cn1)[C@@H](C)O)[C@@H](C)O)C(=O)N[C@@H](CO)C(=O)N[C@@H](CCCCN)C(=O)N[C@@H](Cc1ccc(O)cc1)C(=O)N[C@@H](CC(C)C)C(=O)N[C@@H](CC(=O)O)C(=O)N[C@@H](CCC(=O)O)C(=O)N[C@@H](CCCNC(=N)N)C(=O)N[C@@H](C)C(=O)N[C@@H](C)C(=O)N[C@@H](CCC(N)=O)C(=O)N[C@@H](CC(=O)O)C(=O)N[C@@H](Cc1ccccc1)C(=O)N[C@H](C(=O)N[C@@H](CCC(N)=O)C(=O)N[C@@H](Cc1c[nH]c2ccccc12)C(=O)N[C@@H](CC(C)C)C(=O)N[C@@H](CC(C)C)C(=O)N[C@@H](CC(=O)O)C(=O)NCC(=O)NCC(=O)N1CCC[C@H]1C(=O)N[C@@H](CO)C(=O)N[C@@H](CO)C(=O)NCC(=O)N[C@@H](C)C(=O)N1CCC[C@H]1C(=O)N1CCC[C@H]1C(=O)N1CCC[C@H]1C(=O)N[C@@H](CO)C(=O)NCC(N)=O)C(C)C)C(=O)O
B4: peptide of SEQ ID NO: 207 (peptide)
peptide: H[Aib]QGTFTSDK([γGlu-γGlu-Palmitoyl])SKYLDERAAQDFVQWLLDGGPSSGAPPPSG-NH2
modifications: N-terminus assumed
SMILES: CCCCCCCCCCCCCCCC(=O)N[C@@H](CCC(=O)N[C@@H](CCC(=O)NCCCC[C@H](NC(=O)[C@H](CC(=O)O)NC(=O)[C@H](CO)NC(=O)[C@@H](NC(=O)[C@H](Cc1ccccc1)NC(=O)[C@@H](NC(=O)CNC(=O)[C@H](CCC(N)=O)NC(=O)C(C)(C)NC(=O)[C@@H](N)Cc1c[nH]cn1)[C@@H](C)O)[C@@H](C)O)C(=O)N[C@@H](CO)C(=O)N[C@@H](CCCCN)C(=O)N[C@@H](Cc1ccc(O)cc1)C(=O)N[C@@H](CC(C)C)C(=O)N[C@@H](CC(=O)O)C(=O)N[C@@H](CCC(=O)O)C(=O)N[C@@H](CCCNC(=N)N)C(=O)N[C@@H](C)C(=O)N[C@@H](C)C(=O)N[C@@H](CCC(N)=O)C(=O)N[C@@H](CC(=O)O)C(=O)N[C@@H](Cc1ccccc1)C(=O)N[C@H](C(=O)N[C@@H](CCC(N)=O)C(=O)N[C@@H](Cc1c[nH]c2ccccc12)C(=O)N[C@@H](CC(C)C)C(=O)N[C@@H](CC(C)C)C(=O)N[C@@H](CC(=O)O)C(=O)NCC(=O)NCC(=O)N1CCC[C@H]1C(=O)N[C@@H](CO)C(=O)N[C@@H](CO)C(=O)NCC(=O)N[C@@H](C)C(=O)N1CCC[C@H]1C(=O)N1CCC[C@H]1C(=O)N1CCC[C@H]1C(=O)N[C@@H](CO)C(=O)NCC(N)=O)C(C)C)C(=O)O)C(=O)O
B5: dual acylated peptide of SEQ ID NO: 163 (peptide)
peptide: H[Aib]QGTFTSDK([γGlu-Palmitoyl])SKYLDERAAQDFVQWLLDGGPSSGAPPPSK([γGlu-Palmitoyl])-NH2
modifications: N-terminus assumed
SMILES: CCCCCCCCCCCCCCCC(=O)N[C@@H](CCC(=O)NCCCC[C@H](NC(=O)[C@H](CO)NC(=O)[C@@H]1CCCN1C(=O)[C@@H]1CCCN1C(=O)[C@@H]1CCCN1C(=O)[C@H](C)NC(=O)CNC(=O)[C@H](CO)NC(=O)[C@H](CO)NC(=O)[C@@H]1CCCN1C(=O)CNC(=O)CNC(=O)[C@H](CC(=O)O)NC(=O)[C@H](CC(C)C)NC(=O)[C@H](CC(C)C)NC(=O)[C@H](Cc1c[nH]c2ccccc12)NC(=O)[C@H](CCC(N)=O)NC(=O)[C@@H](NC(=O)[C@H](Cc1ccccc1)NC(=O)[C@H](CC(=O)O)NC(=O)[C@H](CCC(N)=O)NC(=O)[C@H](C)NC(=O)[C@H](C)NC(=O)[C@H](CCCNC(=N)N)NC(=O)[C@H](CCC(=O)O)NC(=O)[C@H](CC(=O)O)NC(=O)[C@H](CC(C)C)NC(=O)[C@H](Cc1ccc(O)cc1)NC(=O)[C@H](CCCCN)NC(=O)[C@H](CO)NC(=O)[C@H](CCCCNC(=O)CC[C@H](NC(=O)CCCCCCCCCCCCCCC)C(=O)O)NC(=O)[C@H](CC(=O)O)NC(=O)[C@H](CO)NC(=O)[C@@H](NC(=O)[C@H](Cc1ccccc1)NC(=O)[C@@H](NC(=O)CNC(=O)[C@H](CCC(N)=O)NC(=O)C(C)(C)NC(=O)[C@@H](N)Cc1c[nH]cn1)[C@@H](C)O)[C@@H](C)O)C(C)C)C(N)=O)C(=O)O
B6: Analog No. 61: Aib2, K10acyl, E16, Aib20, E21, L27, D28, G29 + CEX (SEQ ID NO: 37) (peptide)
peptide: H[Aib]QGTFTSDK([γGlu-Palmitoyl])SKYLDERRA[Aib]EFVQWLLDGGPSSGAPPPS-NH2
modifications: N-terminus assumed
SMILES: CCCCCCCCCCCCCCCC(=O)N[C@@H](CCC(=O)NCCCC[C@H](NC(=O)[C@H](CC(=O)O)NC(=O)[C@H](CO)NC(=O)[C@@H](NC(=O)[C@H](Cc1ccccc1)NC(=O)[C@@H](NC(=O)CNC(=O)[C@H](CCC(N)=O)NC(=O)C(C)(C)NC(=O)[C@@H](N)Cc1c[nH]cn1)[C@@H](C)O)[C@@H](C)O)C(=O)N[C@@H](CO)C(=O)N[C@@H](CCCCN)C(=O)N[C@@H](Cc1ccc(O)cc1)C(=O)N[C@@H](CC(C)C)C(=O)N[C@@H](CC(=O)O)C(=O)N[C@@H](CCC(=O)O)C(=O)N[C@@H](CCCNC(=N)N)C(=O)N[C@@H](CCCNC(=N)N)C(=O)N[C@@H](C)C(=O)NC(C)(C)C(=O)N[C@@H](CCC(=O)O)C(=O)N[C@@H](Cc1ccccc1)C(=O)N[C@H](C(=O)N[C@@H](CCC(N)=O)C(=O)N[C@@H](Cc1c[nH]c2ccccc12)C(=O)N[C@@H](CC(C)C)C(=O)N[C@@H](CC(C)C)C(=O)N[C@@H](CC(=O)O)C(=O)NCC(=O)NCC(=O)N1CCC[C@H]1C(=O)N[C@@H](CO)C(=O)N[C@@H](CO)C(=O)NCC(=O)N[C@@H](C)C(=O)N1CCC[C@H]1C(=O)N1CCC[C@H]1C(=O)N1CCC[C@H]1C(=O)N[C@@H](CO)C(N)=O)C(C)C)C(=O)O

How the values were obtained:
Assay in all cases: cell-based or functional assay
GLP-1 receptor [1] = target: T2, GLP-1 receptor (UniProt P43220 24-463, limits assumed)
GIP receptor [2] = target: T1, GIP receptor
glucagon receptor [3] = target: T3, glucagon receptor (UniProt P47871 26-477, limits assumed)
T3 sequence (P47871 26-477 limits assumed): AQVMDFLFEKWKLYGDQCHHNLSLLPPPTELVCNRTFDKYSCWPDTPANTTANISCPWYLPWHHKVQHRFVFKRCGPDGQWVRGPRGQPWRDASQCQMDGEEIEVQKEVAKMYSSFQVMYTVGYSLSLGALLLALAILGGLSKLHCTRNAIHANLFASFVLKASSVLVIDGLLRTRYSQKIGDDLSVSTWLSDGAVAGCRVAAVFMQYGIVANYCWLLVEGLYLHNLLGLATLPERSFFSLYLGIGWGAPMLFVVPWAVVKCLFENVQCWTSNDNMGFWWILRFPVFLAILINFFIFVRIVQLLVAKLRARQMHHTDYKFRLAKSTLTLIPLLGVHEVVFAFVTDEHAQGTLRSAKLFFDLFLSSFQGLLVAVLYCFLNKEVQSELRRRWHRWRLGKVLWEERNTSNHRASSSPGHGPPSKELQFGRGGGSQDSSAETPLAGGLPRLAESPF

GLP-1 receptor [4] = target: T2, GLP-1 receptor; remark: listed apart in the source
GIP receptor [5] = target: T1, GIP receptor; remark: listed apart in the source
glucagon receptor [6] = target: T3, glucagon receptor; remark: listed apart in the source
GLP-1 receptor [7] = target: T2, GLP-1 receptor; remark: listed apart in the source
Target sequence in this assay (P43220 24-463 limits assumed): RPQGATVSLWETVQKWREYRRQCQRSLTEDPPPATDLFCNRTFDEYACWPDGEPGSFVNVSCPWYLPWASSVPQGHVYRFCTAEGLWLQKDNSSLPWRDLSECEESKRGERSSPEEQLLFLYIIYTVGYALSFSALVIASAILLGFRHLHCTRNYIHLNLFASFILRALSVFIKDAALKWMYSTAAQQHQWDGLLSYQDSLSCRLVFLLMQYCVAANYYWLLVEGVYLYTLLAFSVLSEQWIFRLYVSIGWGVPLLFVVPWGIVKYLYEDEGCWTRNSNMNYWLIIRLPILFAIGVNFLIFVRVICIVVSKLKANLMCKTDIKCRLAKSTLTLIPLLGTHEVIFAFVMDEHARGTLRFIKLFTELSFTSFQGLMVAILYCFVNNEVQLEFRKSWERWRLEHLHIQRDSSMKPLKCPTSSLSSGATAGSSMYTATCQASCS

GIP receptor [8] = target: T1, GIP receptor; remark: listed apart in the source
glucagon receptor [9] = target: T3, glucagon receptor; remark: listed apart in the source
GLP-1 receptor [10] = target: T2, GLP-1 receptor; remark: listed apart in the source
Target sequence in this assay (P43220 24-463 limits assumed): as above

GIP receptor [11] = target: T1, GIP receptor; remark: listed apart in the source
glucagon receptor [12] = target: T3, glucagon receptor; remark: listed apart in the source

Binder | EC50 (cAMP, nmole) (GLP-1 receptor [1]) [nmol] | EC50 (cAMP, nmole) (GIP receptor [2]) [nmol] | EC50 (cAMP, nmole) (glucagon receptor [3]) [nmol] | EC50 (cAMP reporter) (GLP-1 receptor [4]) [pM] | EC50 (cAMP reporter) (GIP receptor [5]) [pM] | EC50 (cAMP reporter) (glucagon receptor [6]) [pM] | also measured
B1 | 0.007 | 0.015 | 0.024 |  |  |  | 
B2 | 0.003 | 0.033 | 0.008 |  |  |  | 
B3 |  |  |  | 2 | 4 | 5 | 
B4 |  |  |  | 2 | 15 | 5 | 
H[Aib]QGTFTSDYSKYLDERAAQDFVQWLLDGGPSSGAPPPSK-NH2 (also: Lys40 branched dual acylation K*K(γE-C16)2) [dual acylated peptide of SEQ ID NO: 161] | 0.007 | 0.01 | 0.011 |  |  |  | 
B5 | 0.011 | 0.024 | 0.018 |  |  |  | 
H[Aib]EGTFTSDK([γGlu-C16])SKYLDERRA[Aib]EFVQWLLDGGPSSGAPPPS-NH2 [Analog No. 62: Aib2, E3, K10acyl, E16, Aib20, E21, L27, D28, G29 + CEX (SEQ ID NO: 38)] |  |  |  |  |  |  | EC50 (cAMP reporter) (GLP-1 receptor [7]): 8 pM; EC50 (cAMP reporter) (GIP receptor [8]): 12 pM; EC50 (cAMP reporter) (glucagon receptor [9]): 127 pM; activity (cAMP reporter), column GLP (GLP-1 receptor [10]): 0.008; activity (cAMP reporter), column GIP (GIP receptor [11]): 0.012; activity (cAMP reporter), column Glu (glucagon receptor [12]): 0.127
H[Aib]QGTFTSDYSKYLDERAAQDFVQWLLDAGPSSGAPPPSK([γGlu-γGlu-Palmitoyl])G-NH2 [peptide of SEQ ID NO: 204] |  |  |  | 1 | 69 | 3 | 
B6 |  |  |  |  |  |  | EC50 (cAMP reporter) (GLP-1 receptor [7]): 6 pM; EC50 (cAMP reporter) (GIP receptor [8]): 2 pM; EC50 (cAMP reporter) (glucagon receptor [9]): 4 pM; activity (cAMP reporter), column GLP (GLP-1 receptor [10]): 0.006; activity (cAMP reporter), column GIP (GIP receptor [11]): 0.003; activity (cAMP reporter), column Glu (glucagon receptor [12]): 0.004

Reference: patent US20120238493A1 (INDIANA UNIVERSITY RESEARCH AND TECHNOLOGY, published 2012)
